Test results taken from patent US20240059764A1 (STARMAB BIOLOGICS SUZHOU, published 2024).

B1: huA3-Fc fusion proteins binding with antigen (Fc fusion)
chain: QVQLVESGGGLVQPGGSLRLSCAASGFTFSRHGMTWVRQAPGKGLEYVGEINIPGDDVDYDISVKGRFTISRDNAKNTLYLQMNSLRAEDTAVYYCARAGENMRLVTRGQGTLVTVSSEPKSSDKTHTCPPCPAPELLGGPSVFLFPPKPKDTLYITREPEVTCVVVDVSHEDPEVKFNWYVDGVEVHNAKTKPREEQYNSTYRVVSVLTVLHQDWLNGKEYKCKVSNKALPAPIEKTISKAKGQPREPQVYTLPPSREEMTKNQVSLTCLVKGFYPSDIAVEWESNGQPENNYKTTPPVLDSDGSFFLYSKLTVDKSRWQQGNVFSCSVMHEALHNHYTQKSLSLSPGK
B2: A3-Fc fusion proteins binding with antigen (Fc fusion)
chain: QVQLVESGGGLVQAGGSLTLSCVASGFTFSRHGMTWVRQAPGKELDYVGEINIPGDDVDYDISVKGRFTISRDNAKNTVYLHMTNLKVEDTATYWCAQAGENMRLVTRRQGTQVTVSTEPKSSDKTHTCPPCPAPELLGGPSVFLFPPKPKDTLYITREPEVTCVVVDVSHEDPEVKFNWYVDGVEVHNAKTKPREEQYNSTYRVVSVLTVLHQDWLNGKEYKCKVSNKALPAPIEKTISKAKGQPREPQVYTLPPSREEMTKNQVSLTCLVKGFYPSDIAVEWESNGQPENNYKTTPPVLDSDGSFFLYSKLTVDKSRWQQGNVFSCSVMHEALHNHYTQKSLSLSPGK
B3: G1-Fc fusion proteins binding with antigen (Fc fusion)
chain: QVQLVESGGDLVQPGGSLTLACEASGFTISSTGMTWVRQAPGKELDWVGDINIPGTDTDYDISVKGRFTISKDHAKNTVYLQMTSLRPEDTAIYYCAKQGANLRQGVQSPGTLVTVSSEPKSSDKTHTCPPCPAPELLGGPSVFLFPPKPKDTLYITREPEVTCVVVDVSHEDPEVKFNWYVDGVEVHNAKTKPREEQYNSTYRVVSVLTVLHQDWLNGKEYKCKVSNKALPAPIEKTISKAKGQPREPQVYTLPPSREEMTKNQVSLTCLVKGFYPSDIAVEWESNGQPENNYKTTPPVLDSDGSFFLYSKLTVDKSRWQQGNVFSCSVMHEALHNHYTQKSLSLSPGK
B4: F6-Fc fusion proteins binding with antigen (Fc fusion)
chain: QVQLVESGGGLAQPGGSLRLSCEASGSTLDSYTVAWFRQAPGKEREGVSCASRSGASTNYANSVKGRFTISRDNAKNTVYLQMNSLKPEDTGVYYCAAYRNFGNFCVMGRYEYDEWGQGTQVTVSSEPKSSDKTHTCPPCPAPELLGGPSVFLFPPKPKDTLYITREPEVTCVVVDVSHEDPEVKFNWYVDGVEVHNAKTKPREEQYNSTYRVVSVLTVLHQDWLNGKEYKCKVSNKALPAPIEKTISKAKGQPREPQVYTLPPSREEMTKNQVSLTCLVKGFYPSDIAVEWESNGQPENNYKTTPPVLDSDGSFFLYSKLTVDKSRWQQGNVFSCSVMHEALHNHYTQKSLSLSPGK
B5: huF6-Fc fusion proteins binding with antigen (Fc fusion)
chain: EVQLVESGGGLVQPGGSLRLSCAASGSTLDSYTVAWVRQAPGKGLEWVSCASRSGASTNYANSVKGRFTISRDNSKNTVYLQMNSLRAEDTAVYYCAAYRNFGNFCVMGRYEYDEWGQGTLVTVSSEPKSSDKTHTCPPCPAPELLGGPSVFLFPPKPKDTLYITREPEVTCVVVDVSHEDPEVKFNWYVDGVEVHNAKTKPREEQYNSTYRVVSVLTVLHQDWLNGKEYKCKVSNKALPAPIEKTISKAKGQPREPQVYTLPPSREEMTKNQVSLTCLVKGFYPSDIAVEWESNGQPENNYKTTPPVLDSDGSFFLYSKLTVDKSRWQQGNVFSCSVMHEALHNHYTQKSLSLSPGK
B6: huG1-Fc fusion proteins binding with antigen (Fc fusion)
chain: QVQLVESGGGLVQPGGSLRLSCAASGFTISSTGMTWVRQAPGKGLEWVGDINIPGTDTDYDISVKGRFTISKDHAKNTVYLQMNSLRAEDTAVYYCAKQGANLRQGVQGQGTLVTVSSEPKSSDKTHTCPPCPAPELLGGPSVFLFPPKPKDTLYITREPEVTCVVVDVSHEDPEVKFNWYVDGVEVHNAKTKPREEQYNSTYRVVSVLTVLHQDWLNGKEYKCKVSNKALPAPIEKTISKAKGQPREPQVYTLPPSREEMTKNQVSLTCLVKGFYPSDIAVEWESNGQPENNYKTTPPVLDSDGSFFLYSKLTVDKSRWQQGNVFSCSVMHEALHNHYTQKSLSLSPGK

target: Staphylococcus aureus alpha toxin (Staphylococcus aureus, UniProt P09616)
Sequence (P09616 27-319 limits assumed): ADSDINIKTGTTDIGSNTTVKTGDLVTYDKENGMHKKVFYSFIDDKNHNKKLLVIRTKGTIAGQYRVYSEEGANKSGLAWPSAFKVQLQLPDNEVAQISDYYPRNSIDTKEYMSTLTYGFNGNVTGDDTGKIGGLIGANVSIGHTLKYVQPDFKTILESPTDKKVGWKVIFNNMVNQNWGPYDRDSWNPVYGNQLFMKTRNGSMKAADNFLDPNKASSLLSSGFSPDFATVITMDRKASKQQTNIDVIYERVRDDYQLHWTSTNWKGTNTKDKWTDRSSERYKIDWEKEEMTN

Question: How did the EC50 turn out when B1 was run?
Answer: The EC50 was 5.97 ng/mL.

Question: B2 was tested. Which EC50 did it give?
Answer: Its EC50 is 9 ng/mL.

Question: For B3, which EC50 is on record?
Answer: Its EC50 is 7 ng/mL.

Question: For B4, which EC50 is on record?
Answer: Its EC50 is 3 ng/mL.

Question: B5 was tested. Which EC50 did it give?
Answer: Its EC50 is 2.72 ng/mL.

Question: Which EC50 does the source give for B6 here?
Answer: The EC50 was 6.35 ng/mL.
